Drawing on patent US20170052184A1 (published 2017), this text covers OD492 nm for four molecules.

Test [1] addresses T1, HCV Core1-169 recombinant antigen (hepatitis C virus (HCV-1), UniProt P26664 1-169).
T1 sequence: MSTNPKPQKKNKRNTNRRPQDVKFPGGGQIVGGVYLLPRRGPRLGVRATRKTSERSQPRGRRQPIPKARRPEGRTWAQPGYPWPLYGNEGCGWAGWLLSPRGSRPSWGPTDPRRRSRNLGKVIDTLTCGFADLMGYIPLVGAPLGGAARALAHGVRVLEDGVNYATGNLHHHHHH
Put plainly: sandwich EIA, 25 ng/ml core1-169; capture mAb 208B-1096.

Test [2] addresses T1, HCV Core1-169 recombinant antigen. Put plainly: sandwich EIA, 25 ng/ml core1-169; capture mAb 208A-110.
The target is the same in test [3]. The test can be described thus: sandwich EIA, 25 ng/ml core1-169; capture mAb 208B-741.
The target is the same in test [4]. The test can be described thus: sandwich EIA, 25 ng/ml core1-169; capture mAb 208A-692.
Test [5] has the same target. The test can be described thus: sandwich EIA, 25 ng/ml core1-169; capture mAb 208B-612-226.
For test [6] the target is unchanged. Put plainly: sandwich EIA, 25 ng/ml core1-169; capture mAb 208A-293.
Test [7] has the same target. Put plainly: sandwich EIA, 25 ng/ml core1-169; capture mAb 208A-557.
Test [8] shares this target. The test can be described thus: sandwich EIA, 25 ng/ml core1-169; capture mAb C11-9.
The target is the same in test [9]. Put plainly: sandwich EIA, 25 ng/ml core1-169; capture mAb 208B-395-334.
Test [10] shares this target. The test can be described thus: sandwich EIA, 25 ng/ml core1-169; capture NC capture mAb.
Test [11] shares this target. Put plainly: sandwich EIA, 25 ng/ml core1-169; capture mAb 208A-207-271.
Test [12] has the same target. Put plainly: sandwich EIA, 25 ng/ml core1-169; capture mAb C11-7.

B1: HCV 208B-1096 monoclonal antibody (antibody, V domains shown)
VH: QVQLQQSGAGLAKPGASVKMSCKASGYTFTANKMHWAKQRPGQGLEWIGYIDPSSGYTEYNHKIQYKATLTADTSSSTAYMQLSTLTFEDSAVYYCTNFAYWGQGTLVTVSA
VL: DIVMTQTPLTLSVTIGQPASISCKSSQSLLFTNGKTYLNWFLQRPGQSPKRLIYLLSKLDSGVPDRFSGSGSGTDFTLKISRVEAEDLGVYYCLQSTYFPLTFGAGTKLELKR
For B1, the OD492 nm in [1] turned out to be 0.26 OD492; in test [2] it was 0.19 OD492; in test [3], 0.23 OD492; in [4] it was 0.15 OD492; in test [5], 0.24 OD492; in test [6], 0.24 OD492. For the same molecule, the OD492 nm amounted to 0.17 OD492 in test [7]; 0.33 OD492 in [8]; 0.2 OD492 in [9]; 0.17 OD492 in [10]; 0.18 OD492 in [11]; 1.06 OD492 in test [12].

B2: 208A-207-271 monoclonal antibody (antibody, V domains shown)
VH: QGQLQQPGAEFVKPGASLKLSCRASGYTFTSYWIHWVKQRPGQGLEWIGEIDPSDSYINQNQKFRGKATLTVDKSSSTAYMELSGLTSEDSAVYYCARHYYGVLDSWGQGTTLTVSS
VL: DIVLTQSPATLSVTPGDRVSLSCRASQRIYNYLHWYQQKSHESPRLLTKYASQSISGIPSRFSGSGSGTDFILTINSVETEDFGMYFCQQSNSWPLTFGAGTKLELRR
For the molecule B2, the OD492 nm came out at 0.33 OD492 in test [1]; 0.38 OD492 in test [2]; 0.3 OD492 in test [3]; 0.42 OD492 in test [4]; 0.33 OD492 in [5]; 0.42 OD492 in test [6]. The OD492 nm was 0.82 OD492 in [7]; 2.2 OD492 in test [8]; 0.37 OD492 in test [9]; 0.37 OD492 in test [10]; 0.36 OD492 in [11]; 2.47 OD492 in test [12].

B3: 208B-395-334 monoclonal antibody (antibody, V domains shown)
VH: QVQLQQSGAGLAKPGASVKMSCKASGYTFTANKMHWTKQRPGQGLEWIGYIDPSSGYTQYNHKIQDKATLTADTSSSTAYMQLSSLTFEDSAVYYCTNFAYWGQGTLVTVSA
VL: DIVLTQSPATLSVTPGDRVSLSCRASQRIYNYLHWYQQKSHESPRLLIKYASQSISGIPSRFSGSGSGTDFILTINSVETEDFGMYFCQQSNSWPLTFGAGTKLELRR
As for B3, the OD492 nm was 0.23 OD492 in test [1]; 0.21 OD492 in test [2]; 0.21 OD492 in [3]; 0.15 OD492 in test [4]; 0.26 OD492 in [5]; 0.26 OD492 in test [6]. Also, the OD492 nm in [7] turned out to be 0.21 OD492; in [8] it was 0.32 OD492; in test [9], 0.23 OD492; in test [10], 0.2 OD492; in [11] it was 0.2 OD492; in test [12], 0.89 OD492.

B4: HCV 208A-557 monoclonal antibody (antibody, V domains shown)
VH: QGQMQQSGAELVKPGASVKLSCKTSGFTFSSSYISWLKQKPGQSLEWIAWIYAGTGNTNYNQKFTDKAQLTVDTSSSTAYMQLSSLTTEDSAIYYCAISGTGFTYWGQGTLVTVSA
VL: DIALTQSPASLAVSLGQRATISCRASQSVSTSRYSYMHWYQQKPGQPPELLIKYASNLESGVPARFSGSGSGTDFTLNIHPVGEEDTATYYCQHSWDFPFTFGSGTKLEIKR
Take B4: the OD492 nm in test [1] is 0.35 OD492; in test [2], 0.44 OD492; in test [3], 0.38 OD492; in test [4], 0.13 OD492; in test [5], 0.25 OD492; in test [6], 0.41 OD492. For the same molecule, the OD492 nm stood at 0.32 OD492 in test [7]; 0.14 OD492 in test [8]; 0.28 OD492 in [9]; 0.18 OD492 in test [10]; 0.18 OD492 in test [11]; 0.22 OD492 in [12].
